The source of these data is US20220096649A1.

B1: Hum8/AB21_HC_Mutall (antibody, V domains shown)
VH: EVQLVESGGGVVQPGGSLRLSCAASGFTFSSNAMSWVRQAPGKGLEWVAGISAGGSDTYYPASVKGRFTISRDNSKNTLYLQMNSLRAEDTAVYYCARETWNHLFDYWGQGTLVTVSS
VL: SYELTQPPSVSVSPGQTARITCSGGAYSSYYYAWYQQKPGQAPVLVIYSDSKRPSGIPERFSGSSSGTTVTLTISGVQAEDEADYYCGGYDQSSYTNPFGGGTKLTVL
B2: Hum9/AB21_HC_Mutall (antibody, V domains shown)
VH: B1 VH
VL: B1 VL with S51D
B3: Anti-SIRP-α antibody 119, light chain wt, heavy chain wt (antibody, V domains shown)
VH: EVQLLESGGGVVQPGGSLRLSCAASGFSFSNFAMTWVRQAPGEGLEWVSTIGSGDTYYADSVKGRFTISRDNSKNTLYLQMNSLRAEDTAVYYCAKDSTVSWSGDFFDYWGLGTLVTVSS
VL: EIVLTQSPATLSVSPGERATFSCRASQNVKNDLAWYQQRPGQAPRLLIYAARIRETGIPERFSGSGSGTEFTLTITSLQSEDFAVYYCQQYYDWPPFTFGGGTKVEIK
B4: Anti-SIRP-α antibody 119, light chain Mut, heavy chain wt (antibody, V domains shown)
VH: B3 VH
VL: B3 VL with F21L, R39K, E60A, T76S
B5: Anti-SIRP-α antibody 135, light chain wt, heavy chain Mut_V34M (antibody, V domains shown)
VH: B3 VH with L5V, N31I, F32Y, T35S, E43K, S53A, G54D, S101G, L112Q
VL: EIVLTQSPATLSVSPGERVTFSCRASQNVRSDIAWYQQKPGQAPRLLIYAASSRDTGIPDRFSGSGSGTDFTLTISSLQSEDFGVYYCQQYYDWPPFTFGGGTKVEIK
B6: Anti-SIRP-α antibody 135, light chain wt, heavy chain Mut (antibody, V domains shown)
VH: B3 VH with L5V, N31I, F32Y, M34V, T35S, E43K, S53A, G54D, S101G, L112Q
VL: B5 VL
B7: Anti-SIRP-α antibody 135, light chain Mut, heavy chain wt (antibody, V domains shown)
VH: B3 VH with E1D, L5V, Q13R, G16E, N31I, F32Y, T35S, S53A, G54D, S101G
VL: B5 VL with F21L, D60A
B8: Anti-SIRP-α antibody 119, light chain Mut, heavy chain Mut (antibody, V domains shown)
VH: B3 VH with M34V, E43K, L112Q
VL: B3 VL with F21L, R39K, E60A, T76S
B9: Anti-SIRP-α antibody 119, light chain wt, heavy chain Mut (antibody, V domains shown)
VH: B3 VH with M34V, E43K, L112Q
VL: B3 VL
B10: Anti-SIRP-α antibody 119, light chain Mut, heavy chain Mut_V34M (antibody, V domains shown)
VH: B3 VH with E43K, L112Q
VL: B3 VL with F21L, R39K, E60A, T76S
B11: Anti-SIRP-α antibody 135, light chain Mut, heavy chain Mut (antibody, V domains shown)
VH: B3 VH with L5V, N31I, F32Y, M34V, T35S, E43K, S53A, G54D, S101G, L112Q
VL: B5 VL with F21L, D60A
B12: Anti-SIRP-α antibody 135, light chain wt, heavy chain wt (antibody, V domains shown)
VH: B3 VH with E1D, L5V, Q13R, G16E, N31I, F32Y, T35S, S53A, G54D, S101G
VL: B5 VL
B13: Anti-SIRP-α antibody 136, light chain Mut_Q38E, heavy chain Mut (antibody, V domains shown)
VH: EVQLVESGGGVVQPGRSLRLSCAASGFTFSSYDVNWVRQAPGKGLEWVSLISGSGEIIYYADSVKGRFTISRDNSKNTLYLQMNSLRAEDTAVYYCAKENNRYRFFDDWGQGTLVTVSS
VL: EIVLTQSPGTLSLSPGERATLSCRASQSVYTYLAWYQEKPGQAPRLLIYGASSRATGIPDRFSGSGSGTEFTLTISSLQSEDFAVYYCQQYYDRPPLTFGGGTKVEIK
B14: Anti-SIRP-α antibody 136, light chain wt, heavy chain Mut (antibody, V domains shown)
VH: B13 VH
VL: B13 VL with I2T, S12T, S22T
B15: Anti-SIRP-α antibody 136, light chain Mut_S12T, heavy chain Mut (antibody, V domains shown)
VH: B13 VH
VL: B13 VL with S12T, E38Q
B16: Anti-SIRP-α antibody 136, light chain Mut_S22T, heavy chain Mut (antibody, V domains shown)
VH: B13 VH
VL: B13 VL with S22T, E38Q
B17: Anti-SIRP-α antibody 136, light chain Mut_I2T, heavy chain Mut_V34M (antibody, V domains shown)
VH: B13 VH with V34M
VL: B13 VL with I2T, E38Q
B18: Anti-SIRP-α antibody 136, light chain Mut, heavy chain Mut (antibody, V domains shown)
VH: B13 VH
VL: B13 VL with E38Q
B19: Anti-SIRP-α antibody 136, light chain Mut_I2T, heavy chain Mut (antibody, V domains shown)
VH: B13 VH
VL: B13 VL with I2T, E38Q
B20: Hum1/AB21_HC_Mutall (antibody, V domains shown)
VH: B1 VH
VL: B1 VL with A26S, L45T, V46L, S51D, G56N

Substitutions are numbered along the chain they refer to.

For the first test, the target named is SIRP-α mouse NOD (mouse (NOD)) (UniProt P97797). Kind of test: SPR, antibody on GLC chip, SIRP as analyte; Mouse NOD SIRP-α allele.
Consider B1, for which the Kd is 28000 pM.
For the molecule B2, the dissociation constant (Kd) was 24000 pM.

In the next test the target is SIRP-α mouse BALBc (mouse (BALBc)) (UniProt P97797). Put plainly: SPR, antibody on GLC chip, SIRP as analyte; Mouse BALBc SIRP-α allele.
Consider B1, for which the Kd worked out at 71000 pM.
Same read-out and setting: with B2 the figure was 140000 pM.

The target in the next test is SIRP-α human v1 (human) (UniProt P78324). Kind of test: SPR, antibody on GLC chip, SIRP as analyte.
Chain of SIRP-α human v1 (human) (P78324 31-149): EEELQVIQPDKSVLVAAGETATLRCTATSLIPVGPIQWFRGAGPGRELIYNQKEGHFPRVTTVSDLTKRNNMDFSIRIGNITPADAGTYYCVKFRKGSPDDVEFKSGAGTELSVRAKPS
In turn, B3 showed an equilibrium dissociation constant (Kd) of 180 pM.
Same read-out and setting: with B4 the figure was 210 pM; with B5, 150 pM.
Take B6: the Kd came to 180 pM.
Molecule B7 registered a Kd of 150 pM.
The molecule B8 had a Kd of 320 pM.
B9 registered a Kd of 250 pM.
The molecule B10 had a Kd of 220 pM.
The molecule B11 returned a Kd of 190 pM.
Same read-out and setting: in the case of B12 it was 150 pM; in that of B13, 6200 pM.
As to B14, the Kd was found to be 560 pM.
Molecule B15 displayed a Kd of 4900 pM.
With B16, the Kd amounted to 5000 pM.
As for B17, the Kd is 550 pM.
B18 displayed a dissociation constant Kd of 7300 pM.
B19 registered a Kd of 720 pM.
As to B20, the dissociation constant Kd was found to be 5.3 pM.
The molecule B1 registered an equilibrium dissociation constant (Kd) of 20 pM.
Regarding B2, the Kd turned out to be 12 pM.

The target in the next test is SIRP-α mouse NOD (mouse (NOD)) (UniProt P97797). Put plainly: SPR, antibody on GLC chip, SIRP as analyte.
With B13, the Kd was found to be 6000 pM.
In the case of B14, the Kd came out at 680 pM.
With B15, the Kd was determined as 2900 pM.
Consider B16, for which the Kd came to 2400 pM.
B17 came in with a Kd of 600 pM.
For B18, the equilibrium dissociation constant (Kd) was 5200 pM.
Take B19: the dissociation constant Kd was 680 pM.
Same read-out and setting: with B20 the figure was 3700 pM.

In a further test the target is SIRP-α mouse BALBc (mouse (BALBc)) (UniProt P97797). Kind of test: SPR, antibody on GLC chip, SIRP as analyte.
Molecule B13 came in with a dissociation constant Kd of 3000 pM.
As for B14, the Kd was 420 pM.
As for B15, the Kd is 2100 pM.
In the case of B16, the dissociation constant Kd is 1600 pM.
B17 showed a dissociation constant Kd of 360 pM.
Molecule B18 had an equilibrium dissociation constant (Kd) of 3100 pM.
With B19, the Kd was found to be 420 pM.
Still for that read-out and setting: with B20 the figure was 7900 pM.
